Laboratory results taken from EP4197559A1, “IMMUNOMODULATORY PROTEIN-SIRNA COMPLEX HAVING ANTICANCER ACTIVITY” (Korea Institute of Science and Technology, priority 2020, dated 2022).

Key:
[1] = biological target: T1, papain enzyme (Carica papaya, UniProt P00784); experiment: Enzyme specificity: cleavage by papain enzyme, analysed by HPLC; assay type: biochemical
T1 sequence (P00784 134-345): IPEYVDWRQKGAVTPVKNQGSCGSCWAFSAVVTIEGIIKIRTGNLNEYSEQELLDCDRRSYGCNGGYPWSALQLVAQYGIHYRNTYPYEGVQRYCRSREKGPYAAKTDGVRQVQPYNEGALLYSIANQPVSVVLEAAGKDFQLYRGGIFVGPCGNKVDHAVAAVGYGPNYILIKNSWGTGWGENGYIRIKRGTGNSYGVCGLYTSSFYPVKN
Description: After adsorbing the sample to a C18 column (Xbridge C18, Waters, MS, USA), it was analyzed by HPLC (Agilent Technologies, CA, USA) while eluting for 30 minutes with concentration gradients using 0.1% TFA/5-95% ACN solutions.

[2] = tested on: HT-29 cells; experiment: Intracellular delivery (uptake) by confocal microscopy; assay type: cell-based, human
Description: First, 2×10^5 HT-29 cells, which are human-derived colon cancer cells, were seeded onto a 35-mm cover glass bottom dish. […] Then, CD47 SiRNA was stained red by using the TOTO3 stain. Next, after treating with the fusion protein-siRNA complex separated and purified in Example 2 at a concentration of 100 pmol/mL, the cells were cultured for 4 hours in a carbon dioxide incubator at 37 °C. Then, the cells were treated with a fixative and the SIRPα protein was stained green using FITC-labeled His-tag antibody. After staining the nuclei of the cells by treating with a 4',6-diamidino-2-phenylindole (DAPI) solution for 10 minutes, fluorescence was measured by confocal microscopy.
In the figure, the blue color corresponds to the nuclei of the cells, the red color to the CD47 siRNA, and the green color to the SIRPα protein.

[3] = tested on: HPRT gene; experiment: Silencing effect for HPRT gene expression (RT-PCR, agarose gel); assay type: cell-based, rat; settings: CT26.CL25 cells, 4 hours serum-free then 2 days
[4] = tested on: CD47 gene; experiment: Silencing effect for CD47 gene expression (RT-PCR, agarose gel); assay type: cell-based, mouse; settings: CT26.CL25 cells, 4 hours serum-free then 2 days, without CD47 antibody (-)
[5] = tested on: CT26.CL25 cells; experiment: Cytotoxicity by CCK-8 (cell counting kit-8); assay type: cell-based, mouse; settings: 800 nM, 72 hours
Description: Then, the cells were analyzed using the CCK-8 (cell counting kit-8) kit.

[6] = tested on: macrophages (bone marrow-derived macrophages, BMDM); experiment: Macrophage phagocytosis of treated cancer cells (fluorescence microscopy); assay type: cell-based, mouse
Description: After the culturing was completed, the CT26.CL25 cells were stained with pHrodo Red (Invitrogen, CA, USA) and, after adding macrophages (bone marrow-derived macrophages, BMDM) extracted from the bone marrow of a laboratory mouse (C57BL/6, male, 6-week-old), cultured for 3 hours in RPMI 1640 medium. The macrophages were stained with Green Cell Tracker (Thermo Fisher Scientific, MS, USA) and fluorescence was measured using a fluorescence microscope (Nikon, Japan).
A control group was treated only with the SIPRα protein.

[7] = tested on: cancer cells; experiment: Pharmacological effect on cancer cells (general statement, no method given)

B1: Example 2: Immunoregulatory fusion protein (SIRPα-linker, SEQ ID NO 1) bound 1 : 1 via cysteine thiol-maleimide to CD47 siRNA (SEQ ID NO 17/18) (conjugate)
chain 1: EEELQIIQPDKSVLVAAGETATLRCTITSLFPVGPIQWFRGAGPGRVLIYNQRQGPFPRVTTVSDTTKRNNMDFSIRIGNITPADAGTYYCIKFRKGSPDDVEFKSGAGTELSVRAKPVDGGFLGGGGCG
chain 2: gggauauuaauacuacuucaguacaca
chain 3: uguacugaaguauuaauauccccg
modifications: cysteine thiol-maleimide conjugation of protein to siRNA; fusion protein; siRNA_DNA : The 26th and 27th nucleotide sequences are DNA; siRNA ansti sense
SIRPα protein detected by HPLC ([1]; after treating with the papain enzyme, room temperature, 10 minutes): detected after treating with the papain enzyme | SIRPα protein detected by HPLC ([1]; complex not treated with the papain enzyme (control)): not detected | absorption into cells ([2]; confocal microscopy): effectively absorbed into cells | intracellular uptake ([2]; treated together with the CD47 antibody): decreased significantly | expression level of the HPRT gene [3]: little change in the expression level of the HPRT gene | expression of the CD47 gene [4]: decreases the expression of the CD47 gene to a level comparable to that of the lipofectamine-siRNA complex | cell viability [5]: ≥ 80% | phagocytosis by macrophages ([6]; CT26.CL25 cells treated at 200 pmol/mL for two days, then BMDM for 3 hours, compared with siRNA alone): enhances phagocytosis by macrophages better than when the siRNA was used alone | effect of enhancing macrophage phagocytosis as compared to only the siRNA (CD47 siRNA) or the SIPRα protein ([6]; printed as 1.5-3 times or higher): 1.5-3 times | superior pharmacological effect on cancer cells as compared to the fusion protein or the siRNA administered alone [7]: 1.5-5 times
